Blank lines part the entries; values can stand above or below the binder they belong to.
Experiments:
HDAC1 (residues 1–482) [1] = target: T1, HDAC1 (residues 1–482) (UniProt Q13547 1-482); assay: co-IP; HEK293F cells co-transfected with His10-Flag3-MTA1 construct, HDAC1 and MBD2; clarified lysate on FLAG resin 30 min, washes in 50 mM Tris-HCl pH 7.5, 100 mM potassium acetate, 5% glycerol, RNase A, elution with TEV protease; SDS-PAGE; DNA ratios 1:1:1 and 1:1:4; conditions: partners not purified
T1 construct: Two copies stand in the HDAC1:MTA1 dimer complex; also called histone deacetylase 1; source: HEK293F, co-transfected, in lysate; co-purified (FLAG resin, TEV protease, Superose 6)
T1 sequence (Q13547 whole entry, the tested form may be a part): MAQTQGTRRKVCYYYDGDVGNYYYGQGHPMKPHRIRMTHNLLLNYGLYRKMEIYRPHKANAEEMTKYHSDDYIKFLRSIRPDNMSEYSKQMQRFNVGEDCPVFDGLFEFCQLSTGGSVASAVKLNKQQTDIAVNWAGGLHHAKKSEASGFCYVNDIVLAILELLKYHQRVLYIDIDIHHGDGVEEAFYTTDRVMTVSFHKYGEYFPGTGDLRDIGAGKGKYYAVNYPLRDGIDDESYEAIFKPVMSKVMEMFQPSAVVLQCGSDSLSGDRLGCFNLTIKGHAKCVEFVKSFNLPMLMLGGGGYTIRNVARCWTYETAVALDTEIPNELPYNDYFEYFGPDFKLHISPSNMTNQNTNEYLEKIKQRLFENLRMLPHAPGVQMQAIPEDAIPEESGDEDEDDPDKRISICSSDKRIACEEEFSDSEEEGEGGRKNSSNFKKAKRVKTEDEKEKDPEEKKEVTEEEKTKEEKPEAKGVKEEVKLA

MBD2 (residues 145–411) = target: T2, MBD2 (residues 145–411) (UniProt Q9UBB5 145-411); assay: as above; conditions: partners not purified
T2 construct: also called untagged MBD2; source: HEK293F, co-transfected, in lysate; co-purified (FLAG resin, TEV protease, Superose 6)
T2 sequence (Q9UBB5 145-411): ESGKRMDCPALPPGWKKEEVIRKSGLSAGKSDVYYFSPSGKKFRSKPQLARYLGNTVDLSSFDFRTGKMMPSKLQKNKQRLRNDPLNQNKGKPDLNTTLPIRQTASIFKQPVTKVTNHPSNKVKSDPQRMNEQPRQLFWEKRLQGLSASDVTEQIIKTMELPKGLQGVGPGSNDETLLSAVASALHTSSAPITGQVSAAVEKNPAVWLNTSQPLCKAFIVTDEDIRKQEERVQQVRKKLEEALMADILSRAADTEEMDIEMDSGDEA

[2] = target: the molecule itself; assay: SEC; FLAG-purified, TEV-eluted co-expressed complex run on a Superose 6 column; fractions on SDS-PAGE
HDAC1 (residues 1–482) [3] = target: T1, HDAC1 (residues 1–482); assay: cryo-EM structure; co-expressed complexes purified by gel filtration, on graphene oxide grids; maps of 6.1, 4.5 and 19 Å with known structures docked as rigid bodies; conditions: both partners purified
[4] = target: the molecule itself; assay: as above
[5] = target: T3, Strep-MBD2 (residues 114–411) (UniProt Q9UBB5 114-411); assay: co-IP; HEK293F cells co-transfected with His10-Flag3-MTA1 construct, HDAC1 and MBD2; clarified lysate on FLAG resin 30 min, washes in 50 mM Tris-HCl pH 7.5, 100 mM potassium acetate, 5% glycerol, RNase A, elution with TEV protease; SDS-PAGE; DNA ratios 1:1:1 and 1:1:4; conditions: partners not purified
T3 construct: MBD2, residues 114–411; source: HEK293F, co-transfected, in lysate; co-purified (FLAG resin, TEV protease, Superose 6)
T3 sequence (Q9UBB5 114-411): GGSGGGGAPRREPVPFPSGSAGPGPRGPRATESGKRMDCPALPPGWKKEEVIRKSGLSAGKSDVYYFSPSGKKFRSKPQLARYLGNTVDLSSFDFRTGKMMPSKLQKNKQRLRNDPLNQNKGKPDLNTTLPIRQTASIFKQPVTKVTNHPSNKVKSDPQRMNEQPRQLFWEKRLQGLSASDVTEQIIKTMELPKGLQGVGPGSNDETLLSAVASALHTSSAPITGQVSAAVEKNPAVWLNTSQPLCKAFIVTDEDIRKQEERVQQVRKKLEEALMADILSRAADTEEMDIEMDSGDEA

[6] = target: the molecule itself; assay: SEC-MALS; peak fraction of the gel filtration-pure HDAC1:MTA1:MBD2 complex re-run on Superose 6 with refractive index and MALS detectors

binding result (HDAC1 (residues 1–482) [1]): binds
binding result (MBD2 (residues 145–411)): binds
B1: MTA1-Δ12 (MTA1 162–354 with part of ELM2 helix 2 deleted) (domain or fragment, UniProt Q13330 162-354, looked up)
chain: ADKGEIRVGNRYQADITDLLKEGEEDGRDQSRLETQVWEAHNPLTDKQIDQFLVVARSVGTFARALDCSSAASRDITLFHAMDTLHKNIYDISKAISALVPQGGPVLCRDEMEEWSASEANLFEEALEKYGKDFTDIQQDFLPWKSLTSIIEYYYMWKTTDRYVQQKRLKAAEAESKLKQV
notes: Tag cleaved off by TEV protease before the gel filtration; Runs as a dimeric and a monomeric species on Superose 6; source: HEK293F, co-transfected, in lysate; co-purified (FLAG resin, TEV protease, Superose 6); not shown: His10-Flag3, N-terminal, kept
binding result [2]: binds

binding result (HDAC1 (residues 1–482) [3]): binds
B2: MTA1 BAH-ELM2-SANT-ZnF (residues 1–453) (domain or fragment, UniProt Q13330 1-453, looked up)
chain: MAANMYRVGDYVYFENSSSNPYLIRRIEELNKTANGNVEAKVVCFYRRRDISSTLIALADKHATLSVCYKAGPGADNGEEGEIEEEMENPEMVDLPEKLKHQLRHRELFLSRQLESLPATHIRGKCSVTLLNETESLKSYLEREDFFFYSLVYDPQQKTLLADKGEIRVGNRYQADITDLLKEGEEDGRDQSRLETQVWEAHNPLTDKQIDQFLVVARSVGTFARALDCSSSVRQPSLHMSAAAASRDITLFHAMDTLHKNIYDISKAISALVPQGGPVLCRDEMEEWSASEANLFEEALEKYGKDFTDIQQDFLPWKSLTSIIEYYYMWKTTDRYVQQKRLKAAEAESKLKQVYIPNYNKPNPNQISVNNVKAGVVNGTGAPGQSPGAGRACESCYTTQSYQWYSWGPPNMQCRLCASCWTYWKKYGGLKMPTRLDGERPGPNRSNMSPHGL
notes: MTA1, BAH, ELM2, SANT and GATA zinc finger domains, residues 1–453; also called extended MTA1 construct; source: HEK293F, co-transfected; co-purified (FLAG resin, TEV protease, Superose 6); not shown: His10-Flag3, N-terminal, cleaved
binding result [4]: binds

binding result [5]: binds
binding result (HDAC1 (residues 1–482) [1]): binds
binding result (MBD2 (residues 145–411)): binds
B3: MTA1 ELM2-SANT domain (residues 162–354) (domain or fragment, UniProt Q13330 162-354, looked up)
chain: ADKGEIRVGNRYQADITDLLKEGEEDGRDQSRLETQVWEAHNPLTDKQIDQFLVVARSVGTFARALDCSSSVRQPSLHMSAAAASRDITLFHAMDTLHKNIYDISKAISALVPQGGPVLCRDEMEEWSASEANLFEEALEKYGKDFTDIQQDFLPWKSLTSIIEYYYMWKTTDRYVQQKRLKAAEAESKLKQV
notes: The tag held the complex on the FLAG resin; it was cleaved off by TEV protease before gel filtration, SEC-MALS, the Strep-Tactin step and cryo-EM; also called MTA1 wildtype; source: HEK293F, co-transfected, in lysate; co-purified (FLAG resin, TEV protease, Superose 6); not shown: His10-Flag3, N-terminal, kept
stoichiometry N [6]: 2

Source: article PMC7736783 (Nucleic Acids Research, 2020)
